# Reference: paper PMC4411560
# Legend:
# [1] = molecular target: 30S IC_(−1/3): canonical 30S initiation complex lacking IF1 and IF3 (E. coli (strain MRE600)); experiment: FRET or BRET
# [2] = molecular target: 30S IC_(−1/3,Met): pseudo 30S initiation complex lacking IF1 and IF3 carrying Met-tRNA^fMet (E. coli (strain MRE600)); experiment: FRET or BRET
substance,measurement,setting,value
"IF2(Cy5): Cy5-labeled E. coli initiation factor 2, γ-isoform, G810C (natural protein)",Kd,[1],50 nM
same,kon,[1],1.3e+07 M⁻¹ s⁻¹
same,koff,[2],1.3 s⁻¹
same,kon,[2],19000 M⁻¹ s⁻¹
